Results on three molecules are retold here after publication PMC8945002, “Pseudomonas aeruginosa Bacterioferritin Is Assembled from FtnA and BfrB Subunits with the Relative Proportions Dependent on the Environmental Oxygen Availability” (Biomolecules, 2022).

B1: Bfr containing only BfrB subunits (24-mer BfrB) isolated from P. aeruginosa (natural protein)
chain: not shown
notes: BfrB, bacterioferritin subunit of P. aeruginosa PAO1, gene PA3531; subunit mass 18,552 Da by LC-MS; 24 copies hold for the homooligomer (SPR target, self rows); in the rows with m3 it stands for the BfrB subunits of the heterooligomeric 24-mer Bfr; also called homooligomeric BfrB; Bfr (0% FtnA, 21% O2); source: purified from P. aeruginosa PAO1 or ΔftnA cells (Q Sepharose, hydroxyapatite, Superdex …)
B2: FtnA subunit of P. aeruginosa (endogenous) (natural protein, P. aeruginosa PAO1 (endogenous), UniProt Q9HWF9 1-154, looked up)
chain: MQGHPEVIDYLNTLLTGELAARDQYFIHSRMYEDWGFSKLYERLNHEMEEETQHADALLRRILLLEGTPRMRPDDIHPGTTVPEMLEADLKLERHVRAALAKGIALCEQHKDFVSRDILKAQLADTEEDHAYWLEQQLGLIARMGLENYLQSQI
notes: FtnA, bacterial ferritin subunit of P. aeruginosa PAO1, gene PA4235 (formerly annotated bfrA); subunit mass 17,940 Da by LC-MS; Found in PAO1 only as a subunit of heterooligomeric Bfr; as 24-mer FtnA only in lysates of ΔbfrB cells cultured in 2% O2 or anaerobically; also called bacterial ferritin; formerly BfrA; source: purified from P. aeruginosa PAO1 as part of Bfr (Q Sepharose, hydroxyapatite, …)
B3: bacterioferritin-associated ferredoxin (Bfd) (natural protein, P. aeruginosa, UniProt Q9HY80 1-73, looked up)
chain: MYVCLCQGVTDNQIRDAIYEGCCSYREVREATGVGTQCGKCACLAKQVVRETLNDLQSAQPVPAFGTTAFVAA
notes: Bfd, the bacterioferritin-associated [2Fe-2S] ferredoxin of P. aeruginosa, product of the bfd gene next to bfrB; Holds a [2Fe-2S] cluster

Data set [1] concerns the molecule itself. The experiment in a line: SEC; Superdex 200 Increase 10/300 GL, 100 mM phosphate buffer pH 7.6, 1 mM TCEP; pure Bfr from P. aeruginosa; elution volume compared with a ferritin standard.
Data set [2] concerns the molecule itself. The experiment in a line: native gel or EMSA; lysates of PAO1, ΔftnA and ΔbfrB cells (21%, 10%, 2% O2 or anaerobic) on native PAGE, stained for iron with Ferene S; BfrBrec and FtnArec as mobility standards; bands excised, digested with trypsin and identified by LC-MS.
For data set [3], the target named is B1. The experiment in a line: SPR; Biacore X100, 25 °C; Bfr or FtnArec immobilised on CM5 chips by amine coupling (100 nM in 10 mM sodium acetate pH 5.0); Bfd 0-40 μM flowed at 5 µL/min in PBS pH 7.4 with 1 mM TCEP; steady-state analysis, steric factor n set to 0.91. The note with it: both partners purified.
For data set [4], the target named is T1, heterooligomeric 24-mer Bfr containing ~45% FtnA, isolated from PAO1 cells cultured in 2% O2 (P. aeruginosa PAO1 (endogenous), UniProt Q9HY79 1-158; Q9HWF9 1-154).
T1 construct: BfrB subunit of P. aeruginosa PAO1, gene PA3531; 18,552 Da; ~55% of the 24 subunits; FtnA subunit of P. aeruginosa PAO1, gene PA4235; 17,940 Da; ~45% of the 24 subunits; 24 subunits in all; a population of molecules of varying composition, on average ~45% FtnA; heme in the BfrB dimers; also called heterooligomeric Bfr; Bfr 45 (2% O2); source: purified from P. aeruginosa PAO1 cultured in 2% O2 (Q …)
T1 sequence (Q9HY79 whole entry, chain 1 of 2, one chain of several): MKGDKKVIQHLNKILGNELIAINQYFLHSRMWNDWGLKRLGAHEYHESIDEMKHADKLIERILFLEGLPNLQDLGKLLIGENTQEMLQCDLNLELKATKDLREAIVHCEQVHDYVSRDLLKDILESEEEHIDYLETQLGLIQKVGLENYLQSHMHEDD
Described as above. The following applies: both partners purified.

Regarding B1, the “stoichiometry N” value in data set [1] amounted to 24.
For the molecule B2, the “stoichiometry N” value in data set [2] was determined as 24.
Take B3: the Kd in data set [3] was 4.7 ± 0.8 µM; in data set [4], 4.3 ± 0.5 µM.
